{"source": "paper PMC6469041", "about": "(BMC Microbiology, 2019)", "molecules": {"B1": {"name": "PhnCDE (strain RS07, phn+3Δ) (Escherichia coli BL21(DE3)) (protein)", "chain 1": "EEQEKALNFGIISTESQQNLKPQWTPFLQDMEKKLGVKVNAFFAPDYAGIIQGMRFNKVDIAWYGNLSAMEAVDRANGQVFAQTVAADGSPGYWSVLIVNKDSPINNLNDLLAKRKDLTFGNGDPNSTSGFLVPGYYVFAKNNISASDFKRTVNAGHETNALAVANKQVDVATNNTENLDKLKTSAPEKLKELKVIWKSPLIPGDPIVWRKNLSETTKDKIYDFFMNYGKTPEEKAVLERLGWAPFRASSDLQLVPIRQLALFKEMQGVKSNKGLNEQDKLAKTTEIQAQLDDLDRLNNALSAMSSVSKAVQ", "chain 2": "MQTITIAPPKRSWFSLLSWAVVLAVLVVSWQGAEMAPLTLIKDGGNMATFAADFFPPDFSQWQDYLTEMAVTLQIAVWGTALAVVLSIPFGLMSAENLVPWWVYQPVRRLMDACRAINEMVFAMLFVVAVGLGPFAGVLALFIHTTGVLSKLLSEAVEAIEPGPVEGIRATGANKLEEILYGVLPQVMPLLISYSLYRFESNVRSATVVGMVGAGGIGVTLWEAIRGFQFQQTCALMVLIIVTVSLLDFLSQRLRKHFI"}, "B2": {"name": "PitA (strain RS04, pitA+3Δ) (Escherichia coli K-12) (protein)", "chain": "MLHLFAGLDLHTGLLLLLALAFVLFYEAINGFHDTANAVATVIYTRAMRSQLAVVMAAVFNFLGVLLGGLSVAYAIVHMLPTDLLLNMGSSHGLAMVFSMLLAAIIWNLGTWYFGLPASSSHTLIGAIIGIGLTNALMTGTSVVDALNIPKVLSIFGSLIVSPIVGLVFAGGLIFLLRRYWSGTKKRARIHLTPAEREKKDGKKKPPFWTRIALILSAIGVAFSHGANDGQKGIGLVMLVLIGVAPAGFVVNMNATGYEITRTRDAINNVEAYFEQHPALLKQATGADQLVPAPEAGATQPAEFHCHPSNTINALNRLKGMLTTDVESYDKLSLDQRSQMRRIMLCVSDTIDKVVKMPGVSADDQRLLKKLKSDMLSTIEYAPVWIIMAVALALGIGTMIGWRRVATTIGEKIGKKGMTYAQGMSAQMTAAVSIGLASYTGMPVSTTHVLSSSVAGTMVVDGGGLQRKTVTSILMAWVFTLPAAVLLSGGLYWLSLQFL"}}, "key": {"[1]": {"molecular_target": "T1, PhnCDE (strain RS07, phn+3Δ) (Escherichia coli, UniProt A0A140NFA3+P16682)", "T1 construct": "gene phnD; native chromosomal ABC transporter in intact cells of RS07 (MG1655 ΔpitA ΔugpBAEC ΔpstSCAB-phoU phnE+); phnE is the functional BL21 allele without the 8 bp insertion of K-12; phnC and phnD may be of K-12 or co-transduced from BL21", "T1 sequence (P16682 27-338)": "B1 chain 1", "T1 sequence (A0A140NFA3 1-259)": "B1 chain 2", "T1 sequence (P16677 1-262 partner)": "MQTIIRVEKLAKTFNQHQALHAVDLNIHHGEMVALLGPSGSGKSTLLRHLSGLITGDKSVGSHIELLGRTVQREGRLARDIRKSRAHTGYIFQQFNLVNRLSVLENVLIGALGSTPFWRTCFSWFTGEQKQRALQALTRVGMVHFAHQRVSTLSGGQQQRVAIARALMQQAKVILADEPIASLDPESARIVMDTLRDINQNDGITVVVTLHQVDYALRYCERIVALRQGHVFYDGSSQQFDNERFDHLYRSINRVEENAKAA", "assay": "competition of […] uptake by intact cells", "type": "cell-based", "conditions": "10 µM 32Pi, 4 mM AePn added 50 s later; strain used for this test not named"}, "[2]": {"substrate": "O=P(O)(O)O", "assay": "cells, lysate or membranes"}}, "data": [{"molecule": "NCCP(=O)(O)O", "note": "[AePn, aminoethylphosphonate]", "values": [{"measurement": "inhibition of Pi uptake at 4 mM", "setting": "[1]", "value": "addition of AePn strongly inhibited Pi uptake when compared to the control"}]}, {"molecule": "B1", "values": [{"measurement": "Km", "setting": "[2]; 5-20 µM KH2PO4, TG medium (Tris T-salts, glucose) pH 7.5, labelled compound", "value": 19.46, "unit": "µM"}]}, {"molecule": "B2", "values": [{"measurement": "Km", "setting": "[2]; 15-50 µM KH2PO4, TG medium (Tris T-salts, glucose) pH 7.5, labelled compound", "value": 25.99, "unit": "µM"}]}]}
